# US20130345129A1 (OTSUKA CHEMICAL, published 2013)
# No end group written: not given here. asialo oligosaccharide = asialo (digalactose) oligosaccharide chain
# T1: mouse GLP-1 receptor (mouse, UniProt O35659 22-463)
# T1 sequence (looked up): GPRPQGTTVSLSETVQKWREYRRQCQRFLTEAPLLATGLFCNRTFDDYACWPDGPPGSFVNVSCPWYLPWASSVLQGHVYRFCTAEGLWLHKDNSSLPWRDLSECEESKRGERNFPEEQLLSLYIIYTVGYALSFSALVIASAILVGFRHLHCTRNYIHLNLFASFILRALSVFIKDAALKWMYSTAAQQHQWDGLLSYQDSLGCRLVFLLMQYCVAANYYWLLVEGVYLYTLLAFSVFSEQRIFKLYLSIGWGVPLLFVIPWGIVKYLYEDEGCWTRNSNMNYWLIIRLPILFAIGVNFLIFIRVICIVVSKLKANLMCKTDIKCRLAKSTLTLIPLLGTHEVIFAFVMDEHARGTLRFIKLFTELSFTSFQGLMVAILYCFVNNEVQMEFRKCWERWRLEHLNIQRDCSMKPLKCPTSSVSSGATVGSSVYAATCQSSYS
# Target: T1, mouse GLP-1 receptor
# Experiment: cell-based or functional assay
row,Binder,"Relative Activity (cAMP synthesis, EC50 relative to GLP-1 = 1)"
1,HAEGTFTSDVSSYLEGQAAC(asialo oligosaccharide)EFIAWLVKGRG [26Cys GLP-1-asialo],0.8 relative (GLP-1 = 1)
2,HAEGTFTSDVSSYLEGQAAKEFIAWC(disialo oligosaccharide)VKGRG [32Cys GLP-1-disialo],< 0.1 relative (GLP-1 = 1)
3,HAEGTFTSDVSSYLEC(disialo oligosaccharide)QAAKEFIAWLVKGRG [22Cys GLP-1-disialo],1 relative (GLP-1 = 1)
4,HAEGTFTSDVSSYLEGQC(disialo oligosaccharide)AKEFIAWLVKGRG [24Cys GLP-1-disialo],< 0.1 relative (GLP-1 = 1)
5,HAEGTFTSDVSSYLEGQAAKEFIAWLVC(asialo oligosaccharide)GRG [34Cys GLP-1-asialo],2.2 relative (GLP-1 = 1)
6,HAEGTFTSDVSSYLEGQAAKC(disialo oligosaccharide)FIAWLVKGRG [27Cys GLP-1-disialo],0.2 relative (GLP-1 = 1)
7,HAEGTFTC(disialo oligosaccharide)DVSSYLEGQAAKEFIAWLVKGRG [14Cys GLP-1-disialo],< 0.1 relative (GLP-1 = 1)
8,HAC(disialo oligosaccharide)GTFTSDVSSYLEGQAAKEFIAWLVKGRG [9Cys GLP-1-disialo],< 0.1 relative (GLP-1 = 1)
9,HAEGTFTSDVSSYLEGQAAKEC(disialo oligosaccharide)IAWLVKGRG [28Cys GLP-1-disialo],< 0.1 relative (GLP-1 = 1)
10,HAEGTFTSDVSSYC(disialo oligosaccharide)EGQAAKEFIAWLVKGRG [20Cys GLP-1-disialo],< 0.1 relative (GLP-1 = 1)

# More lines, now with the values ahead:
row,"Relative Activity (cAMP synthesis, EC50 relative to GLP-1 = 1)",Binder
1,< 0.1 relative (GLP-1 = 1),HAEGTC(disialo oligosaccharide)TSDVSSYLEGQAAKEFIAWLVKGRG [12Cys GLP-1-disialo]
2,0.7 relative (GLP-1 = 1),HAEGTFTSDVSSYLEGQAAKEFIAWLVC(disialo oligosaccharide)GRG [34Cys GLP-1-disialo]
3,< 0.1 relative (GLP-1 = 1),HAEGTFTSDVSSYLEGQAC(disialo oligosaccharide)KEFIAWLVKGRG [25Cys GLP-1-disialo]
4,1.9 relative (GLP-1 = 1),HAEGTFTSDVSSYLEGQAAKEFIAWLVKGC(disialo oligosaccharide)G [36Cys GLP-1-disialo]
5,0.2 relative (GLP-1 = 1),HAEGTFTSDVSSYLEGQAAC(disialo oligosaccharide)EFIAWLVKGRG [26Cys GLP-1-disialo]
6,< 0.1 relative (GLP-1 = 1),HAEC(disialo oligosaccharide)TFTSDVSSYLEGQAAKEFIAWLVKGRG [10Cys GLP-1-disialo]
7,< 0.1 relative (GLP-1 = 1),CHAEGTFTSDVSSYLEGQAAKEFIAWLVKGRG (disialo oligosaccharide chain added Cys at position 6 (added before 7His; chain attached to Cys with bromoacetamidyl disialo oligosaccharide)) [6Cys GLP-1-disialo]
8,0.6 relative (GLP-1 = 1),HAEGTFTSDVSSYLEGQAAKEFIC(disialo oligosaccharide)WLVKGRG [30Cys GLP-1-disialo]
9,< 0.1 relative (GLP-1 = 1),HAEGC(disialo oligosaccharide)FTSDVSSYLEGQAAKEFIAWLVKGRG [11Cys GLP-1-disialo]
10,< 0.1 relative (GLP-1 = 1),HAEGTFTSDVSC(disialo oligosaccharide)YLEGQAAKEFIAWLVKGRG [18Cys GLP-1-disialo]
11,1.9 relative (GLP-1 = 1),HAEGTFTSDVSSYLEGQAAKEFIAWLVKGRGC (disialo oligosaccharide chain added Cys at position 38 (added after 37Gly)) [38Cys GLP-1-disialo]
12,< 0.1 relative (GLP-1 = 1),HAEGTFTSDC(disialo oligosaccharide)SSYLEGQAAKEFIAWLVKGRG [16Cys GLP-1-disialo]
13,< 0.1 relative (GLP-1 = 1),HC(disialo oligosaccharide)EGTFTSDVSSYLEGQAAKEFIAWLVKGRG [8Cys GLP-1-disialo]
